Results as given in patent US20120294797A1 (ALDERBIO, published 2012).

T1: Homo sapiens CGRP-alpha (Calcitonin Gene Related Peptide alpha) (Homo sapiens, C-terminal -NH2 as printed in the sequence (the text says "the N-terminal phenylalanine is amidated"))
T1 construct: Synthetic 37-residue peptide from American Peptides / Bachem; Coated directly on the plate in the recombinant-antibody ELISA; also called human CGRPα; CGRPα
T1 peptide: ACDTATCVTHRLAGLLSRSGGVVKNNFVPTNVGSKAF


Target: T1, Homo sapiens CGRP-alpha (Calcitonin …)
Assay: ELISA: CGRPα coated on plate, antibody dilution series, anti-human IgG Fc-peroxidase detection
Experimental: To characterize recombinant expressed antibodies for their ability to bind to human-CGRPα, antibody-containing solutions were tested by ELISA. All incubations were done at room temperature. Briefly, Immulon IV plagtes (Thermo Scientific) were coated with a CGRPα containing solution ([…] in PBS) for 2 hours. CGRPα-coated plates were then washed three times in wash buffer (PBS, 0.05% Tween-20). The plates were then blocked using a blocking solution (PBS, 0.5% fish skin gelatin, 0.05% Tween-20) for approximately one hour. The blocking solution was then removed and the plates were then incubated with a dilution series of the antibody being tested for approximately one hour. At the end of this incubation, the plate was washed three times with wash buffer and further incubated with a secondary antibody containing solution (Peroxidase conjugated affinipure F(ab′)2 fragment goat anti-human IgG, Fc fragment specific (Jackson Immunoresearch) for approximately 45 minutes and washed three times. At that point a substrate solution (TMB peroxidase substrate, BioFx) and incubated for 3 to 5 minutes in the dark. The reaction was stopped by addition of a HCl containing solution (0.5M) and the plate was read at 450 nm in a plate-reader.

Row | binding result | Binder
1 | binds | Antibody Ab2 (antibody, human IgG1, kappa, N297A, Humanized, full length, human gamma-1 and kappa constant regions) heavy: not shown light: QVLTQSPSSLSASVGDRVTINCQASQSVYDNNYLAWYQQKPGKVPKQLIYSTSTLASGVPSRFSGSGSGTDFTLTISSLQPEDVATYYCLGSYDCSSGDCFVFGGGTKVEIKRTVAAPSVFIFPPSDEQLKSGTASVVCLLNNFYPREAKVQWKVDNALQSGNSQESVTEQDSKDSTYSLSSTLTLSKADYEKHKVYACEVTHQGLSSPVTKSFNRGEC
2 | binds | Antibody Ab12 (antibody, human IgG1, kappa, N297A, V domains shown, Humanized, full length, human gamma-1 and kappa constant regions) VH: EVQLVESGGGLVQPGGSLRLSCAVSGIDVTNYYMQWVRQAPGKGLEWVGVIGVNGKRYYASWAKGRFTISRDNSKTTVYLQMNSLRAEDTAVYFCARGDIWGQGTLVTVSS VL: QVLTQSPSSLSASVGDRVTINCRASQSVYYNNYLAWYQQKPGKVPKQLIYSTSTLASGVPSRFSGSGSGTDFTLTISSLQPEDVATYYCLGSYDCSNGDCFVFGGGTKVEIKR
3 | binds | Antibody Ab3 (antibody, human IgG1, kappa, N297A, Humanized, full length; same variable regions as Ab2, heavy constant region differs (KVDARV instead of KVDKRV)) heavy: not shown light: QVLTQSPSSLSASVGDRVTINCQASQSVYDNNYLAWYQQKPGKVPKQLIYSTSTLASGVPSRFSGSGSGTDFTLTISSLQPEDVATYYCLGSYDCSSGDCFVFGGGTKVEIKRTVAAPSVFIFPPSDEQLKSGTASVVCLLNNFYPREAKVQWKVDNALQSGNSQESVTEQDSKDSTYSLSSTLTLSKADYEKHKVYACEVTHQGLSSPVTKSFNRGEC
4 | binds | Antibody Ab10 (antibody, human IgG1, kappa, N297A, Humanized, full length, human gamma-1 and kappa constant regions) heavy: not shown light: QVLTQSPSSLSASVGDRVTINCQASQNVYNNNYLAWYQQKPGKVPKQLIYSTSTLASGVPSRFSGSGSGTDFTLTISSLQPEDVATYYCLGSYDCSRGDCFVFGGGTKVEIKRTVAAPSVFIFPPSDEQLKSGTASVVCLLNNFYPREAKVQWKVDNALQSGNSQESVTEQDSKDSTYSLSSTLTLSKADYEKHKVYACEVTHQGLSSPVTKSFNRGEC
5 | binds | Antibody Ab8 (antibody, human IgG1, kappa, N297A, V domains shown, Humanized, full length, human gamma-1 and kappa constant regions) VH: EVQLVESGGGLVQPGGSLRLSCAVSGIDLSNHYMQWVRQAPGKGLEWVGVVGINGRTYYASWAKGRFTISRDNSKTTVYLQMNSLRAEDTAVYFCARGDIWGQGTLVTVSS VL: QVLTQSPSSLSASVGDRVTINCQASQSVYNYNYLAWYQQKPGKVPKQLIYSTSTLASGVPSRFSGSGSGTDFTLTISSLQPEDVATYYCLGSYDCSTGDCFVFGGGTKVEIKR
6 | binds | Antibody Ab6 (antibody, human IgG1, kappa, N297A, Humanized, full length; same variable regions as Ab5, heavy constant region differs (KVDARV instead of KVDKRV)) heavy: not shown light: QVLTQSPSSLSASVGDRVTINCQASQSVYHNTYLAWYQQKPGKVPKQLIYDASTLASGVPSRFSGSGSGTDFTLTISSLQPEDVATYYCLGSYDCTNGDCFVFGGGTKVEIKRTVAAPSVFIFPPSDEQLKSGTASVVCLLNNFYPREAKVQWKVDNALQSGNSQESVTEQDSKDSTYSLSSTLTLSKADYEKHKVYACEVTHQGLSSPVTKSFNRGEC
7 | binds | Antibody Ab5 (antibody, human IgG1, kappa, N297A, Humanized, full length, human gamma-1 and kappa constant regions) heavy: not shown light: QVLTQSPSSLSASVGDRVTINCQASQSVYHNTYLAWYQQKPGKVPKQLIYDASTLASGVPSRFSGSGSGTDFTLTISSLQPEDVATYYCLGSYDCTNGDCFVFGGGTKVEIKRTVAAPSVFIFPPSDEQLKSGTASVVCLLNNFYPREAKVQWKVDNALQSGNSQESVTEQDSKDSTYSLSSTLTLSKADYEKHKVYACEVTHQGLSSPVTKSFNRGEC
8 | binds | Antibody Ab14 (antibody, human IgG1, kappa, N297A, Humanized, full length; same variable regions as Ab10, heavy constant region differs (KVDARV instead of KVDKRV)) heavy: not shown light: QVLTQSPSSLSASVGDRVTINCQASQNVYNNNYLAWYQQKPGKVPKQLIYSTSTLASGVPSRFSGSGSGTDFTLTISSLQPEDVATYYCLGSYDCSRGDCFVFGGGTKVEIKRTVAAPSVFIFPPSDEQLKSGTASVVCLLNNFYPREAKVQWKVDNALQSGNSQESVTEQDSKDSTYSLSSTLTLSKADYEKHKVYACEVTHQGLSSPVTKSFNRGEC
9 | binds | Antibody Ab1 (antibody, human IgG1, kappa, N297A, V domains shown, Chimeric (rabbit variable regions, human gamma-1 and kappa constant regions), full length) VH: QSLEESGGRLVTPGTPLTLTCTVSGLDLSSYYMQWVRQAPGKGLEWIGVIGINDNTYYASWAKGRFTISRASSTTVDLKMTSLTTEDTATYFCARGDIWGPGTLVTVSS VL: QVLTQTASPVSAAVGSTVTINCQASQSVYDNNYLAWYQQKPGQPPKQLIYSTSTLASGVSSRFKGSGSGTQFTLTISDLECADAATYYCLGSYDCSSGDCFVFGGGTEVVVKR
10 | binds | Antibody Ab9 (antibody, human IgG1, kappa, N297A, V domains shown, Chimeric (rabbit variable regions, human gamma-1 and kappa constant regions), full length) VH: QSLEESGGRLVTPGTPLTLTCTVSGIGLSSYYMQWVRQSPGRGLEWIGVIGSDGKTYYATWAKGRFTISKTSSTTVDLRMASLTTEDTATYFCTRGDIWGPGTLVTVSS VL: QVLTQTPSPVSAAVGSTVTINCQASQNVYNNNYLAWYQQKPGQPPKQLIYSTSTLASGVSSRFRGSGSGTQFTLTISDVQCDDAATYYCLGSYDCSRGDCFVFGGGTEVVVKR
11 | binds | Antibody Ab4 (antibody, human IgG1, kappa, N297A, V domains shown, Chimeric (rabbit variable regions, human gamma-1 and kappa constant regions), full length) VH: QSLEESGGRLVTPGTPLTLTCSVSGIDLSGYYMNWVRQAPGKGLEWIGVIGINGATYYASWAKGRFTISKTSSTTVDLKMTSLTTEDTATYFCARGDIWGPGTLVTVSS VL: QVLTQTPSPVSAAVGSTVTINCQASQSVYHNTYLAWYQQKPGQPPKQLIYDASTLASGVPSRFSGSGSGTQFTLTISGVQCNDAAAYYCLGSYDCTNGDCFVFGGGTEVVVKR
12 | binds | Antibody Ab11 (antibody, human IgG1, kappa, N297A, V domains shown, Chimeric (rabbit variable regions, human gamma-1 and kappa constant regions), full length) VH: QSLEESGGRLVTPGGSLTLTCTVSGIDVTNYYMQWVRQAPGKGLEWIGVIGVNGKRYYASWAKGRFTISKTSSTTVDLKMTSLTTEDTATYFCARGDIWGPGTLVTVSS VL: QVLTQTASPVSPAVGSTVTINCRASQSVYYNNYLAWYQQKPGQPPKQLIYSTSTLASGVSSRFKGSGSGTQFTLTISDVQCDDAATYYCLGSYDCSNGDCFVFGGGTEVVVKR
13 | binds | Antibody Ab7 (antibody, human IgG1, kappa, N297A, V domains shown, Chimeric (rabbit variable regions, human gamma-1 and kappa constant regions), full length) VH: QEQLKESGGRLVTPGTSLTLTCTVSGIDLSNHYMQWVRQAPGKGLEWIGVVGINGRTYYASWAKGRFTISRTSSTTVDLKMTRLTTEDTATYFCARGDIWGPGTLVTVSS VL: QVLTQTASPVSAAVGSTVTINCQASQSVYNYNYLAWYQQKPGQPPKQLIYSTSTLASGVSSRFKGSGSGTQFTLTISDVQCDDAATYYCLGSYDCSTGDCFVFGGGTEVVVKR
